In US20240336681A1 (LUDWIG MAXIMILIANS UNIVERSIT T M NCHEN, published 2024):

How the values were obtained:
[1] = target: recombinant C-terminally His-tagged human CD47 (extracellular domain) (human) (UniProt Q08722); test: SPR, Biacore X100; construct captured by anti-human Fc on CM5 chip, human CD47 extracellular domain as analyte, 1:1 fit
[2] = target: recombinant C-terminally His-tagged human CD47 (extracellular domain) (human) (UniProt Q08722); test: SPR, Biacore X100; construct captured by anti-human Fc on a CM5 chip, CD47 extracellular domain as analyte, 1:1 fit
human CD47 on cells [3] = target: T1, human CD47 on cells (human, UniProt Q08722 19-323); test: flow cytometry on CD47-positive Expi293 cells; MFI of the antibody over MFI of the isotype control
T1 construct: also called CD47 on Molm-13, OVCAR-3, Suit-2 MSLN, HL-60 cells, red blood cells and CD47-transfected CHO cells
T1 sequence (Q08722 19-323): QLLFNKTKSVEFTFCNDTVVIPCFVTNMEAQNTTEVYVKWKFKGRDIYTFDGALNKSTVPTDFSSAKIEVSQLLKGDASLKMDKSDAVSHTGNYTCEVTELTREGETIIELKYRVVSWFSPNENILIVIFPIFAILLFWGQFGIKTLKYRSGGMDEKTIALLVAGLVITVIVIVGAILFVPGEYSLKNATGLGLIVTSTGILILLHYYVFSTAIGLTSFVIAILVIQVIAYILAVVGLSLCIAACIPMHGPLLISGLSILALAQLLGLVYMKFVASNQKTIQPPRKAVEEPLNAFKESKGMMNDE
Description: (§1) Initially, binding of anti-hCD47 IgG4, anti-hCD47 IgG1 antibodies and Fab domains were measured on CD47-expressing cells by flow cytometry. Cells were stained with 50 nM of antibody followed by staining with a secondary fluorescently labelled anti-human IgG Fc or light-chain antibody, and analyzed by flow cytometry. Binding was measured by calculating the median fluorescence intensity (MFI) ratio, by dividing MFI of the antibody by the MFI of the isotype control.

human CD47 on cells [4] = target: T1, human CD47 on cells; test: flow cytometry on CD47-positive Expi293 cells, 50 nM antibody; MFI of the antibody over MFI of the isotype control
Description: as §1

[5] = target: T2, recombinant C-terminally His-tagged human CD47 (extracellular domain) (human, UniProt Q08722 19-141); test: SPR, Biacore X100; construct captured by anti-human Fc on CM5 chip, human CD47 extracellular domain as analyte, 1:1 fit
T2 construct: also called recombinantly expressed human CD47 extracellular domain
T2 sequence (Q08722 19-141): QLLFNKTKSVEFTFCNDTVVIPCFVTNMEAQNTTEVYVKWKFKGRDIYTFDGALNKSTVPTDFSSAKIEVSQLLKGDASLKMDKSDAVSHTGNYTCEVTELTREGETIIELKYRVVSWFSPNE
Description: (§2) Surface Plasmon Resonance (SPR) was used in addition to analyse binding of the different protein constructs to recombinantly expressed CD47 and to determine their affinity. Association (Kₒₙ) and dissociation (Koff) rate constants were determined by SPR using a Biacore™ X-100 (Cytiva). Using the Human antibody capture kit an anti-human Fc antibody was immobilized on a CM5 sensor chip in a covalent manner using the Amine coupling Kit according to manufacturer's instructions. Humanized anti-hCD47 IgGs were injected as ligand to reach a surface coverage of approximately 100 RU-400 RU. Recombinantly expressed human CD47 extracellular domain was used as analyte and injected in increasing concentrations (e. g. from 3.9 to 1000 nM), with standard association time of 120 s and dissociation time of 600 s. Experiments were performed in multi-cycle kinetics runs, with regeneration between sample injection with the respective regeneration buffer (3M MgCl2 for the human antibody capture kit). All reagents were diluted in HBS-EP+ buffer (Cytiva). Data are fit to a simple 1:1 interaction model using the global data analysis option available within BiaEvaluation 2.0.1 software. The dissociation constant (KD) was used as a value for the affinity and was calculated from the ratio between Koff and Kₒₙ.

[6] = target: T2, recombinant C-terminally His-tagged …; test: SPR, Biacore X100; antibody captured by anti-human Fc on a CM5 chip, CD47 extracellular domain as analyte, 1:1 fit
Description: as §2

Sequence of recombinant C-terminally His-tagged human CD47 (extracellular domain) (human) (Q08722 19-141): as above

Binder	Kd [1] [µM]	koff [2] [s⁻¹]	kon [2] [M⁻¹ s⁻¹]	binding result (human CD47 on cells [3])	MFI ratio (human CD47 on cells [4])	Kd [5] [µM]	Kd [6] [µM]	koff [6] [s⁻¹]	kon [6] [M⁻¹ s⁻¹]
2D6-022 (bispecific antibody, part only; not given: linkers and anti-TAA IgG1 chains, V domains shown, not shown: another chain or arm of the molecule; large carriers; small tags and cut ends) VH: QVELVQSGPEVKKPGSSVKVSCKASGYTFPSYDINWVRQRPGQGLEWMGWIYPRDGSPKYNEKFKGRVTITADTSTSTAYMELHSLRSEDTAVYYCARSVYYGTQFAYWGQGTLVTVSA VL: DIVLTQSPSSLAVSLGERVTMSCKSSQSLLNSRTRKNYLAWYQQKPGQPPKLLIYWASTRDSGVPDRFSGSGSGTDFTLTISSLQAEDVAVYYCKQSFNLVTFGGGTKLEIK	0.106	0.07	660000	–	–	–	–	–	–
2D6-001 (antibody, IgG4, V domains shown, also called VH1/VL1) VH: QVELVQSGAEVKKPGSSVKVSCKASGGTFPSYDINWVRQAPGQGLEWMGWIYPRDGSPKYNEKFKGRVTITADESTSTAYMELSSLRSEDTAVYYCARSVYYGTQFAYWGQGTLVTVSS VL: DIVLTQSPSSLSASVGDRVTMSCKSSQSLLNSRTRKNYLAWYQQKPGKAPKLLIYWASTRDSGVPSRFSGSGSGTDFTLTISSLQPEDIATYYCKQSFNLVTFGGGTKLEIK	–	–	–	no binding (tested: 50 nM (not on the sheet))	1.15	–	–	–	–
2D6-003 (antibody, IgG4, V domains shown, also called VH1/VL3) VH: QVELVQSGAEVKKPGSSVKVSCKASGGTFPSYDINWVRQAPGQGLEWMGWIYPRDGSPKYNEKFKGRVTITADESTSTAYMELSSLRSEDTAVYYCARSVYYGTQFAYWGQGTLVTVSS VL: DIQMTQSPSSLSASVGDRVTITCKSSQSLLNSRTRKNYLAWYQQKPGKAPKLLIYWASTRDSGVPSRFSGSGSGTDFTLTISSLQPEDFATYYCKQSFNLVTFGQGTKVEIK	–	–	–	no binding (tested: 50 nM (not on the sheet))	1.06	–	–	–	–
2D6-014 (antibody, IgG4, V domains shown, also called VH4/VL2) VH: QVQLVESGGGLVQPGGSLRLSCAASGYTFPSYDINWVRQAPGKGLEWVGWIYPRDGSPKYNEKFKGRFTISADTSKNTAYLQMNSLRAEDTAVYYCARSVYYGTQFAYWGQGTLVTVSS VL: DIVMTQSPSSLAVSLGERVTMSCKSSQSLLNSRTRKNYLAWYQQKPGQPPKLLIYWASTRDSGVPDRFSGSGSGTDFTLTISSLQAEDVAVYYCKQSFNLVTFGGGTKLEIK	–	–	–	no binding (tested: 50 nM (not on the sheet))	1.03	–	–	–	–
2D6-000 (antibody, V domains shown, Constant regions come from the vectors pFUSE-CHIg-hG4 and pFUSE2-CLIg-hk; also called anti-CD47 IgG4 (2D6-000)) VH: QVQLQQSGPELVKPGTSVTLSCKASGYTFPSYDINWMKQRPGQGLEWIGWIYPRDGSPKYNEKFKGKATLTVDTSSSTAYMELHSLTSEDSAVYFCARSVYYGTQFAYWGQGTLVTVSA VL: DIVMSQSPSSLAVSAGEKVTMSCKSSQSLLNSRTRKNYLAWYQQKPGQSPKLLIYWASTRDSGVPDRFTGSGSGTDFTLTISSVQAEDLAVYYCKQSFNLVTFGAGTKLELK	–	–	–	–	–	0.0561	–	–	–
2D6-004 (antibody, IgG4, V domains shown, also called VH1/VL4) VH: QVELVQSGAEVKKPGSSVKVSCKASGGTFPSYDINWVRQAPGQGLEWMGWIYPRDGSPKYNEKFKGRVTITADESTSTAYMELSSLRSEDTAVYYCARSVYYGTQFAYWGQGTLVTVSS VL: DIVMTQSPSSLSASVGDRVTITCKSSQSLLNSRTRKNYLAWYQQKPGKAPKLLIYWASTRDSGVPDRFSGSGSGTDFTLTISSLQPEDFATYYCKQSFNLVTFGQGTKVEIK	–	–	–	no binding (tested: 50 nM (not on the sheet))	1.07	–	–	–	–
2D6-076 (antibody, IgG1, V domains shown, hIgG1 (humanized IgG1); only the variable domains are tied to the construct; also called VH2/VL2.7) VH: QVELVQSGPEVKKPGSSVKVSCKASGYTFPSYDINWVRQRPGQGLEWMGWIYPRDGSPKYNEKFKGRVTITADTSTSTAYMELHSLRSEDTAVYYCARSVYYGTQFAYWGQGTLVTVSA VL: DIVLTQSPSSLAVSLGERVTMSCKSSQSLLNSRTRKNYLAWYQQKPGQPPKLLIYWASTRDSGVPDRFSGSGSGTDFTLTISSLQAEDVAVYYCQQSFNLVTFGGGTKLEIK	–	–	–	–	–	0.974	0.97	0.48	490000
2D6-067 (antibody, IgG1, V domains shown, hIgG1 (humanized IgG1); only the variable domains are tied to the construct; also called VH2.5/VL2) VH: QVELVQSGPEVKKPGSSVKVSCKASGYTFPSYDINWVRQRPGQGLEWMGWIYPRFGSPKYNEKFKGRVTITADTSTSTAYMELHSLRSEDTAVYYCARSVYYGTQFAYWGQGTLVTVSA VL: DIVMTQSPSSLAVSLGERVTMSCKSSQSLLNSRTRKNYLAWYQQKPGQPPKLLIYWASTRDSGVPDRFSGSGSGTDFTLTISSLQAEDVAVYYCKQSFNLVTFGGGTKLEIK	–	–	–	–	–	0.219	0.219	0.16	720000
2D6-005 (antibody, IgG4, V domains shown, hIgG4 (humanized IgG4), human kappa constant light chain from vector; only the variable domains are tied to the construct; also called VH2/VL1) VH: QVELVQSGPEVKKPGSSVKVSCKASGYTFPSYDINWVRQRPGQGLEWMGWIYPRDGSPKYNEKFKGRVTITADTSTSTAYMELHSLRSEDTAVYYCARSVYYGTQFAYWGQGTLVTVSA VL: DIVLTQSPSSLSASVGDRVTMSCKSSQSLLNSRTRKNYLAWYQQKPGKAPKLLIYWASTRDSGVPSRFSGSGSGTDFTLTISSLQPEDIATYYCKQSFNLVTFGGGTKLEIK	–	–	–	–	4.95	0.176	0.17	0.13	760000
2D6-066 (antibody, IgG1, V domains shown, hIgG1 (humanized IgG1); only the variable domains are tied to the construct; also called VH2.4/VL2) VH: QVELVQSGPEVKKPGSSVKVSCKASGYTFPSYDINWVRQRPGQGLEWMGWIIPRDGSPKYNEKFKGRVTITADTSTSTAYMELHSLRSEDTAVYYCARSVYYGTQFAYWGQGTLVTVSA VL: DIVMTQSPSSLAVSLGERVTMSCKSSQSLLNSRTRKNYLAWYQQKPGQPPKLLIYWASTRDSGVPDRFSGSGSGTDFTLTISSLQAEDVAVYYCKQSFNLVTFGGGTKLEIK	–	–	–	–	–	1.31	1.31	0.32	250000
2D6-031 (bispecific antibody, part only; not given: linkers and anti-TAA IgG1 chains, V domains shown, not shown: another chain or arm of the molecule; large carriers; small tags and cut ends) VH: QVQLVESGGGLVQPGGSLRLSCAASGYTFPSYDINWVRQAPGKGLEWVGWIYPRDGSPKYNEKFKGRFTISADTSKNTAYLQMNSLRAEDTAVYYCARSVYYGTQFAYWGQGTLVTVSS VL: DIQMTQSPSSLSASVGDRVTITCKSSQSLLNSRTRKNYLAWYQQKPGKAPKLLIYWASTRDSGVPSRFSGSGSGTDFTLTISSLQPEDFATYYCKQSFNLVTFGQGTKVEIK	0.138	0.14	990000	–	–	–	–	–	–
2D6-016 (antibody, IgG4, V domains shown, hIgG4 (humanized IgG4); only the variable domains are tied to the construct; also called VH4/VL4) VH: QVQLVESGGGLVQPGGSLRLSCAASGYTFPSYDINWVRQAPGKGLEWVGWIYPRDGSPKYNEKFKGRFTISADTSKNTAYLQMNSLRAEDTAVYYCARSVYYGTQFAYWGQGTLVTVSS VL: DIVMTQSPSSLSASVGDRVTITCKSSQSLLNSRTRKNYLAWYQQKPGKAPKLLIYWASTRDSGVPDRFSGSGSGTDFTLTISSLQPEDFATYYCKQSFNLVTFGQGTKVEIK	–	–	–	–	3.42	0.203	0.203	0.36	1.8e+06
2D6-015 (antibody, IgG4, V domains shown, hIgG4 (humanized IgG4); only the variable domains are tied to the construct; also called VH4/VL3) VH: QVQLVESGGGLVQPGGSLRLSCAASGYTFPSYDINWVRQAPGKGLEWVGWIYPRDGSPKYNEKFKGRFTISADTSKNTAYLQMNSLRAEDTAVYYCARSVYYGTQFAYWGQGTLVTVSS VL: DIQMTQSPSSLSASVGDRVTITCKSSQSLLNSRTRKNYLAWYQQKPGKAPKLLIYWASTRDSGVPSRFSGSGSGTDFTLTISSLQPEDFATYYCKQSFNLVTFGQGTKVEIK	–	–	–	–	4.14	0.311	0.31	0.22	710000
2D6-032 (bispecific antibody, part only; not given: linkers and anti-TAA IgG1 chains, V domains shown, not shown: another chain or arm of the molecule; large carriers; small tags and cut ends) VH: QVQLVESGGGLVQPGGSLRLSCAASGYTFPSYDINWVRQAPGKGLEWVGWIYPRDGSPKYNEKFKGRFTISADTSKNTAYLQMNSLRAEDTAVYYCARSVYYGTQFAYWGQGTLVTVSS VL: DIVMTQSPSSLSASVGDRVTITCKSSQSLLNSRTRKNYLAWYQQKPGKAPKLLIYWASTRDSGVPDRFSGSGSGTDFTLTISSLQPEDFATYYCKQSFNLVTFGQGTKVEIK	0.141	0.13	960000	–	–	–	–	–	–
